± gives the standard error. This sample holds only a part of the variants without activity.
B1: glmS ribozyme (parent)
chain: AUAAAAGCGCCAGAACUACAGAAAUGUAGUUGACGAGGAGGAGGUUUAUCGAAUUUUCGGCGGAUGCCUCCAAA

Assays:
Details in all cases: with glucosamine-6-phosphate
glucosamine-6-phosphate [1] = variants of: B1; assay: self-cleavage kobs at 40 uM GlcN6P; higher = faster cleavage; RNA array
In short: (§1)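 Barcoded ribozyme variants were transcribed in situ on sequenced MiSeq chips by E. coli RNA polymerase. At 37 °C, a hybridised Cy3 probe tracked them while glucosamine-6-phosphate (40 μM to 10 mM) in HEPES/KCl/Mg(OAc)2 buffer flowed in and tiles were imaged over ~14 h. Per-tile medians of signals normalised to baseline and to non-cleaving reference variants were fit to one- or two-exponential decays, giving kobs. kcat and KM came from weighted Michaelis–Menten fits across concentrations.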

glucosamine-6-phosphate [2] = variants of: B1; assay: self-cleavage kobs at 160 uM GlcN6P; higher = faster cleavage; RNA array
In short: as §1

glucosamine-6-phosphate [3] = variants of: B1; assay: self-cleavage kobs at 640 uM GlcN6P; higher = faster cleavage; RNA array
In short: as §1

glucosamine-6-phosphate [4] = variants of: B1; assay: self-cleavage kobs at 10000 uM GlcN6P; higher = faster cleavage; RNA array
In short: as §1

glucosamine-6-phosphate [5] = variants of: B1; assay: self-cleavage kobs at 2500 uM GlcN6P; higher = faster cleavage; RNA array
In short: as §1

| Variant | self-cleavage kobs at 40 uM GlcN6P (glucosamine-6-phosphate [1]) | self-cleavage kobs at 160 uM GlcN6P (glucosamine-6-phosphate [2]) | self-cleavage kobs at 640 uM GlcN6P (glucosamine-6-phosphate [3]) | self-cleavage kobs at 10000 uM GlcN6P (glucosamine-6-phosphate [4]) | self-cleavage kobs at 2500 uM GlcN6P (glucosamine-6-phosphate [5]) |
| --- | --- | --- | --- | --- | --- |
| G32C A36C G37C | < 1e-05 s⁻¹ |  |  |  |  |
| A33C G60U | < 1e-05 s⁻¹ | < 1e-05 s⁻¹ | < 1e-05 s⁻¹ | < 1e-05 s⁻¹ |  |
| G32U U49G A53C | < 1e-05 s⁻¹ |  |  |  |  |
| C34G U54G | < 1e-05 s⁻¹ | < 1e-05 s⁻¹ | < 1e-05 s⁻¹ | < 1e-05 s⁻¹ |  |
| C34U U54A | < 1e-05 s⁻¹ |  | < 1e-05 s⁻¹ | < 1e-05 s⁻¹ |  |
| G35A A42G | < 1e-05 s⁻¹ | < 1e-05 s⁻¹ | < 1e-05 s⁻¹ | < 1e-05 s⁻¹ | < 1e-05 s⁻¹ |
| G32U U56A C61G C67A | 7.99e-05 ± 3e-05 s⁻¹ |  |  |  |  |
| C34U U45A | < 1e-05 s⁻¹ | < 1e-05 s⁻¹ | < 1e-05 s⁻¹ | < 1e-05 s⁻¹ | < 1e-05 s⁻¹ |
| A33G A48G C71U | < 1e-05 s⁻¹ | < 1e-05 s⁻¹ |  | < 1e-05 s⁻¹ | < 1e-05 s⁻¹ |
| G32A C50G G51A | < 1e-05 s⁻¹ |  |  |  |  |
| G32U G44U | < 1e-05 s⁻¹ | < 1e-05 s⁻¹ | < 1e-05 s⁻¹ |  |  |
| C34A G44U G51C | < 1e-05 s⁻¹ |  | < 1e-05 s⁻¹ | < 1e-05 s⁻¹ | < 1e-05 s⁻¹ |
| G32A U57G | < 1e-05 s⁻¹ |  |  |  |  |
| A33C U65G | < 1e-05 s⁻¹ | < 1e-05 s⁻¹ | < 1e-05 s⁻¹ |  |  |
| G35A A64G C70G | < 1e-05 s⁻¹ |  |  | < 1e-05 s⁻¹ |  |
| G32C U69G | 0.000189 ± 3.1e-05 s⁻¹ |  | 0.000383 ± 8e-05 s⁻¹ | 9.57e-05 ± 1.1e-05 s⁻¹ | 0.000111 ± 2.5e-05 s⁻¹ |
| G32U G38A | < 1e-05 s⁻¹ |  |  | < 1e-05 s⁻¹ |  |
| C34G G40A U55G | < 1e-05 s⁻¹ |  |  |  |  |
| G32U U46C G51U | < 1e-05 s⁻¹ |  |  | < 1e-05 s⁻¹ |  |
| A33U A36C C58G U69C | 4.07e-05 ± 2e-05 s⁻¹ | 7.32e-05 ± 1.9e-05 s⁻¹ |  |  |  |
| G32U G43U G44U G60A | < 1e-05 s⁻¹ |  | < 1e-05 s⁻¹ |  | < 1e-05 s⁻¹ |
| A33C G59C | < 1e-05 s⁻¹ | < 1e-05 s⁻¹ | < 1e-05 s⁻¹ | < 1e-05 s⁻¹ | < 1e-05 s⁻¹ |
| A33G C61G | < 1e-05 s⁻¹ | < 1e-05 s⁻¹ | < 1e-05 s⁻¹ | < 1e-05 s⁻¹ |  |

| Variant | self-cleavage kobs at 40 uM GlcN6P (glucosamine-6-phosphate [1]) | self-cleavage kobs at 160 uM GlcN6P (glucosamine-6-phosphate [2]) | self-cleavage kobs at 640 uM GlcN6P (glucosamine-6-phosphate [3]) | self-cleavage kobs at 10000 uM GlcN6P (glucosamine-6-phosphate [4]) | self-cleavage kobs at 2500 uM GlcN6P (glucosamine-6-phosphate [5]) |
| --- | --- | --- | --- | --- | --- |
| A33G C61U | < 1e-05 s⁻¹ |  |  | < 1e-05 s⁻¹ |  |
| A33U U49C | < 1e-05 s⁻¹ | < 1e-05 s⁻¹ | < 1e-05 s⁻¹ | < 1e-05 s⁻¹ |  |
| A33C A64C | < 1e-05 s⁻¹ | < 1e-05 s⁻¹ | < 1e-05 s⁻¹ | < 1e-05 s⁻¹ | < 1e-05 s⁻¹ |
| U31G G59C | < 1e-05 s⁻¹ | < 1e-05 s⁻¹ | < 1e-05 s⁻¹ | < 1e-05 s⁻¹ |  |
| G35A A36U G37U A39G U54C C68U | 5.13e-05 ± 2.2e-05 s⁻¹ |  |  |  |  |
| G32A U47C A48G C71U | < 1e-05 s⁻¹ |  |  |  |  |
| U31G G35C | < 1e-05 s⁻¹ | < 1e-05 s⁻¹ | < 1e-05 s⁻¹ |  | < 1e-05 s⁻¹ |
| U31G A39U C61U | < 1e-05 s⁻¹ |  |  |  |  |
| C34U A42C | < 1e-05 s⁻¹ |  | < 1e-05 s⁻¹ | < 1e-05 s⁻¹ | < 1e-05 s⁻¹ |
| A33U A36C G59C | < 1e-05 s⁻¹ |  |  | < 1e-05 s⁻¹ |  |
| G35A C50G C61G | 0.000147 ± 3e-05 s⁻¹ |  |  | 0.000252 ± 4.7e-05 s⁻¹ |  |
| G35A C50G U55A C61G | 0.000205 ± 5.1e-05 s⁻¹ |  |  | 0.000255 ± 4e-05 s⁻¹ |  |
| A33C U55C U57C | < 1e-05 s⁻¹ |  |  | < 1e-05 s⁻¹ |  |
| G32C U56C | < 1e-05 s⁻¹ | < 1e-05 s⁻¹ | < 1e-05 s⁻¹ |  |  |
| G32A A33U C68G C71G | 0.000162 ± 3.9e-05 s⁻¹ |  | 0.000432 ± 0.0001 s⁻¹ | 0.000152 ± 3.2e-05 s⁻¹ | 9.26e-05 ± 3.4e-05 s⁻¹ |
| A33C G40C | < 1e-05 s⁻¹ | < 1e-05 s⁻¹ | < 1e-05 s⁻¹ |  |  |
| U31G G43A C61A C68A | < 1e-05 s⁻¹ | < 1e-05 s⁻¹ | < 1e-05 s⁻¹ |  | < 1e-05 s⁻¹ |
| A33C G63U C67U | < 1e-05 s⁻¹ |  |  |  |  |
| A33U C61U C70U | < 1e-05 s⁻¹ |  |  |  | < 1e-05 s⁻¹ |
| C34G G44U | < 1e-05 s⁻¹ | < 1e-05 s⁻¹ | < 1e-05 s⁻¹ | < 1e-05 s⁻¹ |  |
| A33G G51U | < 1e-05 s⁻¹ |  | < 1e-05 s⁻¹ | < 1e-05 s⁻¹ |  |
| G35A A48C | < 1e-05 s⁻¹ | < 1e-05 s⁻¹ | < 1e-05 s⁻¹ | < 1e-05 s⁻¹ | < 1e-05 s⁻¹ |
